Data reported in the supplement of paper PMC10126150.
± gives the standard deviation of the averaged measurements.

test system: ATP; test: switch fluorescence ratio, 500 uM ATP over buffer (Cy3 cluster intensity, sum of 5 cycles each) (fold (ratio)); higher = stronger signal-on switching upon ATP binding; sequences stand for … in TCGTCGGCAGCGTCAGATGTGTATAAGAGACAGTTTTTTTTTTTTTTTTTTTTTTTTT…TC; settings: aptamer strand: ATP DNA aptamer (quencher-CACCTGGGGGAGTATTGCGGAGGAAGG + anchor), 100 nM annealed; ATP concentration: 500 uM
Procedure, shortened: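 Between each of five buffer/ATP cycles, the flow-cell was stripped with NaOH and re-annealed. Each cycle imaged Cy3-labelled switching-strand clusters, annealed to 100 nM quencher-labelled ATP aptamer on a modified Illumina MiSeq flow-cell, first in selection buffer and then after 15 min with 500 uM ATP at 22 °C. The fluorescence ratio is summed target-cycle over summed buffer-cycle Cy3 intensity per cluster, averaged per switch-domain sequence, with clusters outside 100-1000 RFU excluded.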
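Further: ATP exposure 15 min at 22 °C before imaging.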

Sequence	switch fluorescence ratio
TTGGAATGT	1.029 ± 0.0083
TTGGAATTCC	0.989 ± 0.05
TTGGACGGAA	1.224 ± 0.0051
TTGGACTAGG	1.02 ± 0.024
TTGGAGAGTG	0.963 ± 0.021
TTGGAGCATG	1.28 ± 0.049
TTGGAGGAAA	1.09 ± 0.13
TTGGAGGCGA	0.994 ± 0.062
TTGGAGGGCG	1.03 ± 0.017
TTGGAGGGTT	0.992 ± 0.017
TTGGAGTGGT	1.03 ± 0.013
TTGGAGTTGT	1.02 ± 0.098
TTGGATATTC	0.997 ± 0.033
TTGGATCCGC	1.32 ± 0.45
TTGGATCCGG	0.98 ± 0.039
TTGGATGAGG	0.973 ± 0.048
TTGGATGCGG	1.0022 ± 0.00011
TTGGATGGTT	1.01 ± 0.03
TTGGATGTAA	1 ± 0.036
TTGGATTTCA	0.972 ± 0.045
TTGGCACAAT	1.05 ± 0.026
TTGGCACGGG	1.03 ± 0.022
TTGGCAGGGG	1.06 ± 0.047
TTGGCCGATG	1.001 ± 0.0098
TTGGCCGCAC	2.67 ± 0.049
TTGGCCGGAT	0.9532 ± 0.0042

Sequence	switch fluorescence ratio
TTGGCGCCTG	0.9947 ± 0.0075
TTGGCGGAGG	1.007 ± 0.0058
TTGGCGGGGC	1.02 ± 0.012
TTGGCGTTGG	0.987 ± 0.026
TTGGCGTTTT	1.04 ± 0.026
TTGGCTGGCT	1.08 ± 0.071
TTGGCTGTAG	1.13 ± 0.13
TTGGCTTAGG	1.05 ± 0.096
TTGGCTTAGT	0.991 ± 0.034
TTGGGAAAGG	1.002 ± 0.0053
TTGGGAATAC	3.23 ± 0.53
TTGGGACCGT	1 ± 0.0015
TTGGGACGAC	1.022 ± 0.0084
TTGGGACTTC	1.03 ± 0.012
TTGGGAGGCT	1 ± 0.044
TTGGGAGGGC	1.18 ± 0.27
TTGGGAGTGT	0.994 ± 0.031
TTGGGATTGT	0.989 ± 0.014
TTGGGCAACA	1.05 ± 0.079
TTGGGCAACG	1.06 ± 0.022
TTGGGCAATA	1.77 ± 0.35
TTGGGCAGCA	0.99411 ± 0.00084
TTGGGCCGGT	1 ± 0.037
TTGGGCGATT	1.06 ± 0.045
TTGGGCGGAA	1.03 ± 0.071
TTGGGCGGCG	0.982 ± 0.074

Sequence	switch fluorescence ratio
TTGGGCGGGA	0.968 ± 0.099
TTGGGCGTTT	1 ± 0.043
TTGGGCTACG	1.002 ± 0.0048
TTGGGCTCAG	0.982 ± 0.013
TTGGGCTGGA	0.961 ± 0.054
TTGGGCTTGG	0.997 ± 0.033
TTGGGGAAAA	1.04 ± 0.054
TTGGGGACAT	0.98 ± 0.043
TTGGGGAGAT	0.989 ± 0.014
TTGGGGAGGT	1.01 ± 0.037
TTGGGGCAAC	1.03 ± 0.047
TTGGGGCTGG	1.01 ± 0.013
TTGGGGCTT	1.32 ± 0.41
TTGGGGCTTG	0.998 ± 0.012
TTGGGGGAAC	1 ± 0.014
TTGGGGGAGT	1.03 ± 0.022
TTGGGGGATC	0.982 ± 0.015
TTGGGGGATT	1 ± 0.022
TTGGGGGCAC	1.024 ± 0.0069
TTGGGGGCCC	1.01 ± 0.033
TTGGGGGGAT	1.02 ± 0.053
TTGGGGGGCT	1.01 ± 0.09
TTGGGGGGG	1.02 ± 0.035
TTGGGGGGTA	0.987 ± 0.028
